Legend:
[1] = target: T1, NSRRPSRATWL (SEQ ID NO: 55)
T1 chain: NSRRPSRATWL

[2] = target: T2, RLRRLTAREAA (SEQ ID NO: 56)
T2 chain: RLRRLTAREAA

[3] = target: T3, Peptide 3 (LKRSLSEM), substrate, Serum Response Factor
T3 chain: LKRSLSEM

[4] = target: T4, … (SEQ ID NO: 54)
T4 chain: SYTRFSLARQV

[5] = target: T5, QKKRVSMILQS (SEQ ID NO: 59)
T5 chain: QKKRVSMILQS

[6] = target: T6, KTRKISQSAQT (SEQ ID NO: 52)
T6 chain: KTRKISQSAQT

[7] = target: T7, WPWQVSLRTRF (SEQ ID NO: 48)
T7 chain: WPWQVSLRTRF

[8] = target: T8, RGFLRSASLGR (SEQ ID NO: 32)
T8 chain: RGFLRSASLGR

[9] = target: T9, LMRRNSVTPLA (SEQ ID NO: 39)
T9 chain: LMRRNSVTPLA

[10] = target: T10, … (SEQ ID NO: 16)
T10 chain: KKRFSFKKSFK

[11] = target: T11, Peptide 4 (RTPKLARQASIELPSM), substrate, lymphocyte-specific protein 1
T11 chain: RTPKLARQASIELPSM

[12] = target: T12, Peptide 1 (FARKGSLRQ), substrate, pseudo-substrate PKC alpha
T12 chain: FARKGSLRQ

[13] = target: T13, TRSKGTLRYMS (SEQ ID NO: 38)
T13 chain: TRSKGTLRYMS

[14] = target: T14, MRRSKSPADSA (SEQ ID NO: 37)
T14 chain: MRRSKSPADSA

[15] = target: T15, KAFRDTFRLLL (SEQ ID NO: 22)
T15 chain: KAFRDTFRLLL

[16] = target: T16, AKIQASFRGHM (SEQ ID NO: 20)
T16 chain: AKIQASFRGHM

[17] = target: T17, VAKRESRGLKS (SEQ ID NO: 21)
T17 chain: VAKRESRGLKS

[18] = target: T18, KTRRLSAFQQG (SEQ ID NO: 28)
T18 chain: KTRRLSAFQQG

[19] = target: T19, FARKGSLRQKN (SEQ ID NO: 6)
T19 chain: FARKGSLRQKN

[20] = target: T20, PKRPGSVHRTP (SEQ ID NO: 23)
T20 chain: PKRPGSVHRTP

[21] = target: T21, GTFRSSIRRLS (SEQ ID NO: 49)
T21 chain: GTFRSSIRRLS

[22] = target: T22, SPLRHSFQKQQ (SEQ ID NO: 25)
T22 chain: SPLRHSFQKQQ

[23] = target: T23, NKRRATLPHPG (SEQ ID NO: 53)
T23 chain: NKRRATLPHPG

[24] = target: T24, MYHNSSQKRH (SEQ ID NO: 36)
T24 chain: MYHNSSQKRH

[25] = target: T25, GKRRPSRLVAL (SEQ ID NO: 58)
T25 chain: GKRRPSRLVAL

[26] = target: T26, EEPVLTLVDEA (SEQ ID NO: 41)
T26 chain: EEPVLTLVDEA

[27] = target: T27, KRRQISIRGIV (SEQ ID NO: 47)
T27 chain: KRRQISIRGIV

[28] = target: T28, MYRRSYVFQT (SEQ ID NO: 30)
T28 chain: MYRRSYVFQT

[29] = target: T29, KPFKLSGLSFK (SEQ ID NO: 43)
T29 chain: KPFKLSGLSFK

[30] = target: T30, AFRRTSLAGGG (SEQ ID NO: 44)
T30 chain: AFRRTSLAGGG

[31] = target: T31, DIKRLTPRFTL (SEQ ID NO: 34)
T31 chain: DIKRLTPRFTL

[32] = target: T32, KIQASFRGHMA (SEQ ID NO: 18)
T32 chain: KIQASFRGHMA

[33] = target: T33, LSRTLSVAAKK (SEQ ID NO: 19)
T33 chain: LSRTLSVAAKK

[34] = target: T34, APKRGSILSKP (SEQ ID NO: 35)
T34 chain: APKRGSILSKP

[35] = target: T35, ATFKKTFKHLL (SEQ ID NO: 24)
T35 chain: ATFKKTFKHLL

[36] = target: T36, ALGKRTAKYRW (SEQ ID NO: 45)
T36 chain: ALGKRTAKYRW

[37] = target: T37, LRQLRSPRRTQ (SEQ ID NO: 51)
T37 chain: LRQLRSPRRTQ

[38] = target: T38, RVVGGSLRGAQ (SEQ ID NO: 50)
T38 chain: RVVGGSLRGAQ

[39] = target: T39, QKRPSQRSKYL (SEQ ID NO: 17)
T39 chain: QKRPSQRSKYL

[40] = target: T40, IYRASYYRKGG (SEQ ID NO: 27)
T40 chain: IYRASYYRKGG

[41] = target: T41, RGRSRSAPPNL (SEQ ID NO: 29)
T41 chain: RGRSRSAPPNL

[42] = target: T42, NKRRGSVPILR (SEQ ID NO: 57)
T42 chain: NKRRGSVPILR

[43] = target: T43, SQKRPSQRHGS (SEQ ID NO: 42)
T43 chain: SQKRPSQRHGS

[44] = target: T44, VVRTDSLKGRR (SEQ ID NO: 46)
T44 chain: VVRTDSLKGRR

[45] = target: T45, KFRTPSFLKKS (SEQ ID NO: 26)
T45 chain: KFRTPSFLKKS

[46] = target: T46, ETKKQSFKQTG (SEQ ID NO: 33)
T46 chain: ETKKQSFKQTG

[47] = target: T47, QAWSKTTPRRI (SEQ ID NO: 31)
T47 chain: QAWSKTTPRRI

[48] = target: T48, ITRKRSGEAAV (SEQ ID NO: 40)
T48 chain: ITRKRSGEAAV

B1: PKC-θ kinase domain (PKC-θ KD; amino acid residues 362 to 706), C-terminal hexa-histidine tag, expressed in E. coli (protein)
chain: MGPELNKERPSLQIKLKIEDFILHKMLGKGSFGKVFLAEFKKTNQFFAIKALKKDVVLMDDDVECTMVEKRVLSLAWEHPFLTHMFCTFQTKENLFFVMEYLNGGDLMYHIQSCHKFDLSRATFYAAEIILGLQFLHSKGIVYRDLKLDNILLDKDGHIKIADFGMCKENMLGDAKTNTFCGTPDYIAPEILLGQKYNHSVDWWSFGVLLYEMLIGQSPFHGQDEEELFHSIRMDNPFYPRWLEKEAKDLLVKLFVREPEKRLGVRGDIRQHPLFREINWEELERKEIDPPFRPKVKSPFDCSNFDKEFLNEKPRLSFADRALINSMDQNMFRNFSFMNPGMERLISHHHHHH
phosphorylation of the peptide spot (32P, peptide array) [1]: shown to be substrates for PKC-θ | phosphorylation of the peptide spot (32P, peptide array) [2]: shown to be substrates for PKC-θ | kcat [3]: 21 s⁻¹ | kcat/Km [3]: 51000 M⁻¹ s⁻¹ | phosphorylation of the peptide spot (32P, peptide array) [4]: shown to be substrates for PKC-θ | phosphorylation of the peptide spot (32P, peptide array) [5]: shown to be substrates for PKC-θ | phosphorylation of the peptide spot (32P, peptide array) [6]: shown to be substrates for PKC-θ | phosphorylation of the peptide spot (32P, peptide array) [7]: shown to be substrates for PKC-θ | phosphorylation of the peptide spot (32P, peptide array) [8]: shown to be substrates for PKC-θ | phosphorylation of the peptide spot (32P, peptide array) [9]: shown to be substrates for PKC-θ | phosphorylation of the peptide spot (32P, peptide array) [10]: shown to be substrates for PKC-θ | kcat [11]: 14 s⁻¹ | kcat/Km [11]: 58000 M⁻¹ s⁻¹ | (kcat/Km)^η, slope of the solvent microviscosity effect, 250 mM NaCl [12]: the slope had a (kcat/Km)^η value of 0.86 in 250 mM NaCl | kcat/Km [12]: 2.7e+06 M⁻¹ s⁻¹ | phosphorylation of the peptide spot (32P, peptide array) [13]: shown to be substrates for PKC-θ | phosphorylation of the peptide spot (32P, peptide array) [14]: shown to be substrates for PKC-θ | phosphorylation of the peptide spot (32P, peptide array) [15]: shown to be substrates for PKC-θ | phosphorylation of the peptide spot (32P, peptide array) [16]: shown to be substrates for PKC-θ | phosphorylation of the peptide spot (32P, peptide array) [17]: shown to be substrates for PKC-θ | phosphorylation of the peptide spot (32P, peptide array) [18]: shown to be substrates for PKC-θ | phosphorylation of the peptide spot (32P, peptide array) [19]: shown to be substrates for PKC-θ | phosphorylation of the peptide spot (32P, peptide array) [20]: shown to be substrates for PKC-θ | phosphorylation of the peptide spot (32P, peptide array) [21]: shown to be substrates for PKC-θ | phosphorylation of the peptide spot (32P, peptide array) [22]: shown to be substrates for PKC-θ | phosphorylation of the peptide spot (32P, peptide array) [23]: shown to be substrates for PKC-θ | phosphorylation of the peptide spot (32P, peptide array) [24]: shown to be substrates for PKC-θ | phosphorylation of the peptide spot (32P, peptide array) [25]: shown to be substrates for PKC-θ | phosphorylation of the peptide spot (32P, peptide array) [26]: shown to be substrates for PKC-θ | phosphorylation of the peptide spot (32P, peptide array) [27]: shown to be substrates for PKC-θ | phosphorylation of the peptide spot (32P, peptide array) [28]: shown to be substrates for PKC-θ | phosphorylation of the peptide spot (32P, peptide array) [29]: shown to be substrates for PKC-θ | phosphorylation of the peptide spot (32P, peptide array) [30]: shown to be substrates for PKC-θ | phosphorylation of the peptide spot (32P, peptide array) [31]: shown to be substrates for PKC-θ | phosphorylation of the peptide spot (32P, peptide array) [32]: shown to be substrates for PKC-θ | phosphorylation of the peptide spot (32P, peptide array) [33]: shown to be substrates for PKC-θ | phosphorylation of the peptide spot (32P, peptide array) [34]: shown to be substrates for PKC-θ | phosphorylation of the peptide spot (32P, peptide array) [35]: shown to be substrates for PKC-θ | phosphorylation of the peptide spot (32P, peptide array) [36]: shown to be substrates for PKC-θ | phosphorylation of the peptide spot (32P, peptide array) [37]: shown to be substrates for PKC-θ | phosphorylation of the peptide spot (32P, peptide array) [38]: shown to be substrates for PKC-θ | phosphorylation of the peptide spot (32P, peptide array) [39]: shown to be substrates for PKC-θ | phosphorylation of the peptide spot (32P, peptide array) [40]: shown to be substrates for PKC-θ | phosphorylation of the peptide spot (32P, peptide array) [41]: shown to be substrates for PKC-θ | phosphorylation of the peptide spot (32P, peptide array) [42]: shown to be substrates for PKC-θ | phosphorylation of the peptide spot (32P, peptide array) [43]: shown to be substrates for PKC-θ | phosphorylation of the peptide spot (32P, peptide array) [44]: shown to be substrates for PKC-θ | phosphorylation of the peptide spot (32P, peptide array) [45]: shown to be substrates for PKC-θ | phosphorylation of the peptide spot (32P, peptide array) [46]: shown to be substrates for PKC-θ | phosphorylation of the peptide spot (32P, peptide array) [47]: shown to be substrates for PKC-θ | phosphorylation of the peptide spot (32P, peptide array) [48]: shown to be substrates for PKC-θ

— US20050164323
